B1: Wnt1: Wnt1 protein, member of the Wnt family, expressed in cells from a retrovirus encoding it (protein, UniProt P04426 28-370, looked up)
Proto-oncogene Wnt-1: ANSSGRWWGIVNIASSTNLLTDSKSLQLVLEPSLQLLSRKQRRLIRQNPGILHSVSGGLQSAVRECKWQFRNRRWNCPTAPGPHLFGKIVNRGCRETAFIFAITSAGVTHSVARSCSEGSIESCTCDYRRRGPGGPDWHWGGCSDNIDFGRLFGREFVDSGEKGRDLRFLMNLHNNEAGRTTVFSEMRQECKCHGMSGSCTVRTCWMRLPTLRAVGDVLRDRFDGASRVLYGNRGSNRASRAELLRLEPEDPAHKPPSPHDLVYFEKSPNFCTYSGRLGTAGTAGRACNSSSPALDGCELLCCGRGHRTRTQRVTERCNCTFHWCCHVSCRNCTHTRVLHECL
B2: Wnt5a: Wnt family member expressed in C57MG cells from a Wnt5a retrovirus (protein, UniProt P22725 62-380, looked up)
Protein Wnt-5a: IIGAQPLCSQLAGLSQGQKKLCHLYQDHMQYIGEGAKTGIKECQYQFRHRRWNCSTVDNTSVFGRVMQIGSRETAFTYAVSAAGVVNAMSRACREGELSTCGCSRAARPKDLPRDWLWGGCGDNIDYGYRFAKEFVDARERERIHAKGSYESARILMNLHNNEAGRRTVYNLADVACKCHGVSGSCSLKTCWLQLADFRKVGDALKEKYDSAAAMRLNSRGKLVQVNSRFNSPTTQDLVYIDPSPDYCVRNESTGSLGTQGRLCNKTSEGMDGCELMCCGRGYDQFKTVQTERCHCKFHWCCYVKCKKCTEIVDQFVCK

Key:
PC12 cells [1] = experiment: β-catenin levels in Wnt1-expressing PC12 lines; type: cell-based; settings: 12 independent Wnt1-expressing PC12 lines
Description: (§1) A retrovirus encoding the Wnt1 protein was introduced into PC12 cells as described in Mol. Cell. Biol. 14:466, (1995), and twelve independent Wnt1-expressing lines were established. Wnt1 expression in the lines was examined by measuring β-catenin levels.

[2] = system: C57MG mammary epithelial cell line; experiment: Aβ levels in C57MG cells infected with Wnt retrovirus; type: cell-based, mouse; settings: C57MG cells infected with retrovirus expressing the Wnt protein
PC12 cells [3] = experiment: Aβ levels by ELISA in Wnt1-expressing PC12 lines; type: cell-based; settings: 12 independent Wnt1-expressing PC12 lines
Description: as §1

Molecule | β catenin stabilization (PC12 cells [1]) | Aβ levels [2] | levels of Aβ peptide in the cell lines (PC12 cells [3]; ELISA) | Aβ levels in the culture media (PC12 cells [3]; culture media)
B1 | positively correlated with the degree of β catenin stabilization | increase in Aβ levels | positively correlated with Wnt1 expression | positive correlation with Wnt1 expression
B2 | – | did not show increased Aβ levels | – | –

Reference: patent publication US6403325B1, “Methods and compounds for treating alzheimer's disease” (priority 1997, dated 2002)
